Patent publication US20240294622A1
pIC50: −log10 of the molar value.

Target: DAN-his (Sinobiological) (human) (UniProt P41271)
Assay: blocking ELISA: coated BMP2, antibody pre-incubated with human DAN-his, anti-his HRP; blocked ligand BMP2; fit value of a flat control curve; unit from the axis Concentration(nM)

DAN-his (Sinobiological) (human), sequence (P41271 17-181 limits assumed): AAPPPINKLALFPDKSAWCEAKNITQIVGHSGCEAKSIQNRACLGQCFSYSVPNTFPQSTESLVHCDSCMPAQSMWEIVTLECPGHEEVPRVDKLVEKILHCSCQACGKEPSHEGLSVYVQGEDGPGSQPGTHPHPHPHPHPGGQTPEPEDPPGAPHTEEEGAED

IgG1 (antibody)
pIC50: 7.61
